Where a chain is given by its changes, count along the chain named.
T1: human EphB6 extracellular region-SEAP-His protein (human, UniProt O15197 32-594)
T1 construct: extracellular domain; also called hEphB6-SEAP-His
T1 sequence (looked up): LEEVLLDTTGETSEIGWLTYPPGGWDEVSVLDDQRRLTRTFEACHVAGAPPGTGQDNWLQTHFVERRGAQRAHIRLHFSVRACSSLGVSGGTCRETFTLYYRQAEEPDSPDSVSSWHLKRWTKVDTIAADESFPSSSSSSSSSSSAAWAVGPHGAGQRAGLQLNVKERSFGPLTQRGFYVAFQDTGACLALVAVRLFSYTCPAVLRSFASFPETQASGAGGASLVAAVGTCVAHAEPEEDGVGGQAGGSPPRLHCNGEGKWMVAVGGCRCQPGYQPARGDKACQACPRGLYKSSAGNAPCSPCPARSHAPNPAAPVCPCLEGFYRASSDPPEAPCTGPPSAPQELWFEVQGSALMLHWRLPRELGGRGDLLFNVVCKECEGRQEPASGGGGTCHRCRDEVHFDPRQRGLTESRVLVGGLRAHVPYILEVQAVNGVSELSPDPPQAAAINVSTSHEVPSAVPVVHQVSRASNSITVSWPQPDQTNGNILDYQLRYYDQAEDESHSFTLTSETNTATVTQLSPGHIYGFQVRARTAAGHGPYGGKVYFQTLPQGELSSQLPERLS

T2: human EphA7 extracellular region-SEAP-His protein (human, UniProt Q15375 28-555)
T2 construct: extracellular domain; also called hEphA7-SEAP-His
T2 sequence (looked up): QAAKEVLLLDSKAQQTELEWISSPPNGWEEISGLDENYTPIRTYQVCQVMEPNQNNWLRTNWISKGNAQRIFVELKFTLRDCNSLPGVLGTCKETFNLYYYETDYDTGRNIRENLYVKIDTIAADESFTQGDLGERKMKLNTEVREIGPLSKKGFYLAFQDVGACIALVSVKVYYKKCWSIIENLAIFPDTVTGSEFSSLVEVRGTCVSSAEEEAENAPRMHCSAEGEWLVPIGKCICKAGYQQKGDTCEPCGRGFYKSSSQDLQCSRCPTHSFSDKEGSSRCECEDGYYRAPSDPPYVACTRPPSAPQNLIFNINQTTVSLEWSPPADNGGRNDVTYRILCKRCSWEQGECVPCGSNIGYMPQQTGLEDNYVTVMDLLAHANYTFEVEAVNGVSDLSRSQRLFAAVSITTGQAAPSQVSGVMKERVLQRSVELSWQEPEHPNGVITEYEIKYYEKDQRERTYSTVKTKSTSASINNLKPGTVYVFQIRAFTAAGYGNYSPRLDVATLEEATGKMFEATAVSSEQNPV

T3: human EphB3 extracellular region-SEAP-His protein (human, UniProt P54753 34-559)
T3 construct: extracellular domain; also called hEphB3-SEAP-His
T3 sequence (looked up): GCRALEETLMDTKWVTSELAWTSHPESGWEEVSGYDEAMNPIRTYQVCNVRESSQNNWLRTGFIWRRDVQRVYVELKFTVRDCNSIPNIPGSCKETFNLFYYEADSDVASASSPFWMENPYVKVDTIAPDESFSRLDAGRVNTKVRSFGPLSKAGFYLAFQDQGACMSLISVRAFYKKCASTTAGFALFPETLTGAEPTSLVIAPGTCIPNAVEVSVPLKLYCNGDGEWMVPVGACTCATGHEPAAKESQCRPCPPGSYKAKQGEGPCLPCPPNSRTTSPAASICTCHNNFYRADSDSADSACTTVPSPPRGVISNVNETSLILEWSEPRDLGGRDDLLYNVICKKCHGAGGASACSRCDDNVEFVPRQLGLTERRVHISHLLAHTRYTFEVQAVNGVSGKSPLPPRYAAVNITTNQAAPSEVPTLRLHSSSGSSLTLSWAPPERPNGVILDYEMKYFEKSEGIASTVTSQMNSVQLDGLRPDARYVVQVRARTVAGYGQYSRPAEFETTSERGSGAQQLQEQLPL

T4: human EphA1 extracellular region-SEAP-His protein (human, UniProt P21709 26-547)
T4 construct: extracellular domain; also called hEphA1-SEAP-His
T4 sequence (looked up): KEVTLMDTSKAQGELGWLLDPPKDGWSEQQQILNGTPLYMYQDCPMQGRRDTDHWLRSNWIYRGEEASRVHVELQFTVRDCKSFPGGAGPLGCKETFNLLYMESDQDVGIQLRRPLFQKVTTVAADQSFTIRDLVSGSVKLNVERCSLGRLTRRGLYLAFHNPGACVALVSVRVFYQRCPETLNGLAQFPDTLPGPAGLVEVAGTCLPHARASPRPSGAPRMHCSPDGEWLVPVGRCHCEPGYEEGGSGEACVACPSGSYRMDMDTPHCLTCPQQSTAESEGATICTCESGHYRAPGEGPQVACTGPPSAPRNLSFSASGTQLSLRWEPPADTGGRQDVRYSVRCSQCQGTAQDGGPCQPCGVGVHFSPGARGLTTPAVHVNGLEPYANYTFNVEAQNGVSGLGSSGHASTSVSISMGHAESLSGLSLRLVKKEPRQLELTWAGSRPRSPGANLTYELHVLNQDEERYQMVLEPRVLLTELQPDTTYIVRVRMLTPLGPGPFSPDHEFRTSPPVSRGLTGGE

B1: humanized antibody No. 141 (antibody, human IgG2)
heavy: QVQLVQSGSELKKPGASVKVSCKASGYTFTDYSMHWVRQAPGQGLEWMGWINTETGEPTYADDFKGRFVFSLDTSVSTAYLQISSLKAEDTAVYYCARIPLYYYGSRYWYFDVWGQGTTVTVSSASTKGPSVFPLAPSSRSTSESTAALGCLVKDYFPEPVTVSWNSGALTSGVHTFPAVLQSSGLYSLSSVVTVPSSNFGTQTYTCNVDHKPSNTKVDKTVERKSCVECPPCPAPPAAAPSVFLFPPKPKDTLMISRTPEVTCVVVDVSHEDPEVQFNWYVDGVEVHNAKTKPREEQFNSTFRVVSVLTVVHQDWLNGKEYKCKVSNKGLPAPIEKTISKTKGQPREPQVYTLPPSREEMTKNQVSLTCLVKGFYPSDIAVEWESNGQPENNYKTTPPMLDSDGSFFLYSKLTVDKSRWQQGNVFSCSVMHEALHNHYTQKSLSLSPG
light: DIQMTQSPSSLSASVGDRVTITCRASENIYRNLAWYQQKPGKAPKLLVYAATNLADGVPSRFSGSGSGTDYTLTISSLQPEDFATYYCQHFWGTPWTFGQGTKVEIKRTVAAPSVFIFPPSDEQLKSGTASVVCLLNNFYPREAKVQWKVDNALQSGNSQESVTEQDSKDSTYSLSSTLTLSKADYEKHKVYACEVTHQGLSSPVTKSFNRGEC
notes: human Ig kappa; also called L1-4/HK1
B2: humanized antibody No. 155 (antibody, human IgG2)
heavy: B1 heavy with V2I, E46K
light: B1 light with V48L, P80S
notes: human Ig kappa; also called L1-5/HK4
B3: humanized antibody No. 144 (antibody, human IgG2)
heavy: B1 heavy
light: B1 light with K45Q, V48L
notes: human Ig kappa; also called L1-6/HK1
B4: humanized antibody No. 145 (antibody, human IgG2)
heavy: B1 heavy with E46K
light: B1 light with V48L, P80S
notes: human Ig kappa; also called L1-5/HK2
B5: humanized antibody No. 151 (antibody, human IgG2)
heavy: B1 heavy with V2I, E46K, D62Q, D63G, K65T
light: B1 light with V48L, P80S
notes: human Ig kappa; also called L1-5/HA4
B6: humanized antibody No. 142 (antibody, human IgG2)
heavy: B1 heavy with E46K
light: B1 light
notes: human Ig kappa; also called L1-4/HK2
B7: humanized antibody No. 143 (antibody, human IgG2)
heavy: B1 heavy with V2I, E46K
light: B1 light
notes: human Ig kappa; also called L1-4/HK4
B8: humanized antibody No. 153 (antibody, human IgG2)
heavy: B1 heavy with E46K, D62Q, D63G, K65T
light: B1 light with V48L, P80S
notes: human Ig kappa; also called L1-5/HA2
B9: humanized antibody No. 154 (antibody, human IgG2)
heavy: B1 heavy
light: B1 light with V48L, P80S
notes: human Ig kappa; also called L1-5/HK1
B10: humanized antibody No. 152 (antibody, human IgG2)
heavy: B1 heavy with D62Q, D63G, K65T
light: B1 light with V48L, P80S
notes: human Ig kappa; also called L1-5/HA1
B11: humanized antibody No. 156 (antibody, human IgG2)
heavy: B1 heavy with V2I, E46K, D62Q, D63G, K65T
light: B1 light with K45Q, V48L
notes: human Ig kappa; also called L1-6/HA4

The binders below were run against SEAP-His (UniProt P05187 23-511) (assay: ELISA).
SEAP-His, sequence (P05187 23-511): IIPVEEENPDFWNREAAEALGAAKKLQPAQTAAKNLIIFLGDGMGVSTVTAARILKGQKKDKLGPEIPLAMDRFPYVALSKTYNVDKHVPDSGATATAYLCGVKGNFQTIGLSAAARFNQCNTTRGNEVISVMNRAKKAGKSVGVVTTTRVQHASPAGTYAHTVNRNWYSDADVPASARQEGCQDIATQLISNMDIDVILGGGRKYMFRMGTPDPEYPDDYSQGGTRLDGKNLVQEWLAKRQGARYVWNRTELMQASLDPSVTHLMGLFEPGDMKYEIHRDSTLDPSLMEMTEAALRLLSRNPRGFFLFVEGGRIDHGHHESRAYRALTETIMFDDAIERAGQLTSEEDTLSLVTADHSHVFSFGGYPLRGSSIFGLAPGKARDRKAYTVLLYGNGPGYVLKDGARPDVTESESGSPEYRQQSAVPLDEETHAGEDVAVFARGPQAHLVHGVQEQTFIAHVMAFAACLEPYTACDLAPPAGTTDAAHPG

Binder | A450 as % of hEphA4-SEAP-His
B1 | 5%
B2 | 5.8%
B3 | 5.7%
B4 | 6.4%
B5 | 6.8%
B6 | 5.8%
B7 | 6.3%
B8 | 5.9%
B9 | 6.3%
B10 | 5.4%
B11 | 5.4%

These binders were tested against T1, human EphB6 extracellular … (assay: ELISA).

Binder | A450 as % of hEphA4-SEAP-His
B1 | 5.4%
B2 | 5.6%
B3 | 5.9%
B4 | 6.6%
B5 | 7.1%
B6 | 5.6%
B7 | 5.6%
B8 | 6.2%
B9 | 6.4%
B10 | 5.9%
B11 | 5.7%

The binders below were run against T2, human EphA7 extracellular … (assay: ELISA).

Binder | A450 as % of hEphA4-SEAP-His
B1 | 5.3%
B2 | 5.6%
B3 | 5.6%
B4 | 6.3%
B5 | 6.8%
B6 | 5.5%
B7 | 5.8%
B8 | 6.2%
B9 | 6.3%
B10 | 5.7%
B11 | 5.6%

What follows are binders tested against T3, human EphB3 extracellular … (assay: ELISA).

Binder | A450 as % of hEphA4-SEAP-His
B1 | 5.2%
B2 | 5.5%
B3 | 5.8%
B4 | 6.7%
B5 | 7.3%
B6 | 5.6%
B7 | 5.9%
B8 | 5.9%
B9 | 6.2%
B10 | 6%
B11 | 5.6%

Each binder was assayed against T4, human EphA1 extracellular … (assay: ELISA).

Binder | A450 as % of hEphA4-SEAP-His
B1 | 5.3%
B2 | 5.5%
B3 | 5.6%
B4 | 6.7%
B5 | 7.1%
B6 | 5.6%
B7 | 6%
B8 | 6.3%
B9 | 6.4%
B10 | 5.8%
B11 | 5.7%

What follows are binders tested against T5, human EphA5 extracellular region-SEAP-His protein (human, UniProt P54756 25-573) (assay: ELISA).
T5 construct: extracellular domain; also called hEphA5-SEAP-His
T5 sequence (P54756 25-573): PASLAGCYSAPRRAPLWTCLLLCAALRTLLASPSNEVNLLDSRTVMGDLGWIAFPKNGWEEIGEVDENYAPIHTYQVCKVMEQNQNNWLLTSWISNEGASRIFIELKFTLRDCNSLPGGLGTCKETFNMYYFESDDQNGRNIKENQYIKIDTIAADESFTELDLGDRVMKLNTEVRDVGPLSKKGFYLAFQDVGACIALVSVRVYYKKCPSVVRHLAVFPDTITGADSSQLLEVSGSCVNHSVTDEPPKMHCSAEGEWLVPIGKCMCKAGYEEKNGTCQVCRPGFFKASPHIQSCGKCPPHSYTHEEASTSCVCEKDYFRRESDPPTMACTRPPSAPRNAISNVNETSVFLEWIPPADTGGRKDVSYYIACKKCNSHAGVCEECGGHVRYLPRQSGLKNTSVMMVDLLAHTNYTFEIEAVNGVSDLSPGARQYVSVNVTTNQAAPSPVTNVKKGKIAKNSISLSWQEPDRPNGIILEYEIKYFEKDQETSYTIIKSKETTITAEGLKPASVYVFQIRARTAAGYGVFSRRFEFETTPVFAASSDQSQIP

Binder | A450 as % of hEphA4-SEAP-His
B1 | 5.3%
B2 | 5.6%
B3 | 5.6%
B4 | 6.6%
B5 | 7%
B6 | 5.7%
B7 | 6.1%
B8 | 6.1%
B9 | 6.3%
B10 | 5.8%
B11 | 5.7%

Source: patent US20190077860A1 (EISAI R AND D MANAGEMENT, published 2019)
